In article PMC3102678:

Molecular target: F pilus (conjugative pilus encoded by the F′ plasmid) on E. coli TOP10F′ (F+) cells (E. coli (endogenous on TOP10F′, F′ plasmid)) (UniProt P04737)
UniProt P04737, sequence (P04737 52-121): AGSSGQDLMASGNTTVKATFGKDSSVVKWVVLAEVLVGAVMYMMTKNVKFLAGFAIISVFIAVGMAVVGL

g3p on replicating phage M13-km^R (from UniProt P69168 19-424) (natural protein)
inhibition of F-mediated conjugation by replicating phage M13-km^R (no pre-infection), binding model applied naively without phage replication and infection: apparent Kd: 2.4 pM
